The text below walks through data of publication PMC3568127 (2013).

For test [1], the target named is T1, NRP1 (neuropilin 1) expressed from an adenovirus on DU145 cells (UniProt O14786 22-923). Briefly: competition with bt-VEGF-A165 on DU145 cells.
For test [2], the target named is T1, NRP1 (neuropilin 1) expressed from an …. The experiment in a line: competition with bt-VEGF-A165 on DU145 cells, +BSA.

T1 sequence (O14786 22-923): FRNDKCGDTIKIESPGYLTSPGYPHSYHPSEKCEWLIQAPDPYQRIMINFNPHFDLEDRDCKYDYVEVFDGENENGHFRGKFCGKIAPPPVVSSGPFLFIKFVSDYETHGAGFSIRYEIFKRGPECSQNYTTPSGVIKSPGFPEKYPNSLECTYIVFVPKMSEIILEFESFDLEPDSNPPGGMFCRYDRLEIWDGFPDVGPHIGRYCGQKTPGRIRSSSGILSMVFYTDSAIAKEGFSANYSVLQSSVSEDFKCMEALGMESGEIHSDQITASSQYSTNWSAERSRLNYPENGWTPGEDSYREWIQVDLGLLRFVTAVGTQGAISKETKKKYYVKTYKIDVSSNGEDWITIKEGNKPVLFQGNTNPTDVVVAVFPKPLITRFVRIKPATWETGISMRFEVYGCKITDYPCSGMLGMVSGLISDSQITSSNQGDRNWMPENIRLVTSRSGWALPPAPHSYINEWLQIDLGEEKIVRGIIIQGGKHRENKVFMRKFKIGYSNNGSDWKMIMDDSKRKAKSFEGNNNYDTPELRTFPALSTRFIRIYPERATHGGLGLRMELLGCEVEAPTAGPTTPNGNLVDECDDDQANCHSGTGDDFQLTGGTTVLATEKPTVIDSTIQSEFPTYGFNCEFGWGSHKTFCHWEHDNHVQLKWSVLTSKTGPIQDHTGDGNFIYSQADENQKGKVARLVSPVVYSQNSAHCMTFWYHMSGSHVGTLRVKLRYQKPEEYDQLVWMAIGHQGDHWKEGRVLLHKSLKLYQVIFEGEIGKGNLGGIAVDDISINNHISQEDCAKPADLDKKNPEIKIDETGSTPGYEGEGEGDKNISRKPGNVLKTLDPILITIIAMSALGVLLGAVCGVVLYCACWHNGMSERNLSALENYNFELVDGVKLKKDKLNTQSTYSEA

B1: His6-tagged VEGF-A165-HBD (heparin binding domain of human vascular endothelial growth factor VEGF-A165) (domain or fragment)
chain: PCGPCSERRKHLFVQDPQTCKCSCKNTDSRCKARQLELNERTCRCDKPRR
A word on the IC50: it is the point on the concentration scale where inhibition reaches its midpoint. A higher IC50 goes with weaker potency in that assay. As for B1, the results for the IC50 in test [1] and in test [2] were 161 nM and 152 nM, respectively.

B2: VEGF-A165-HBD with the His6-tag removed (domain or fragment)
chain: PCGPCSERRKHLFVQDPQTCKCSCKNTDSRCKARQLELNERTCRCDKPRR
B2: the concentration for half-maximal inhibition (IC50) in test [1] is 107 nM; in test [2], 229 nM.

B3: VEGF-A165 (R&D Systems), unlabelled (ligand)
chain: APMAEGGGQNHHEVVKFMDVYQRSYCHPIETLVDIFQEYPDEIEYIFKPSCVPLMRCGGCCNDEGLECVPTEESNITMQIMRIKPHQGQHIGEMSFLQHNKCECRPKKDRARQENPCGPCSERRKHLFVQDPQTCKCSCKNTDSRCKARQLELNERTCRCDKPRR
modifications: Disulfide-linked homodimer. Mature VEGF165 (equals P15692-4 residues 27-191, 165 aa) is built from the 395-aa displayed form by removing exon 6a, with K to N at the splice junction. Limits follow the standard mature VEGF165; the paper does not print them.
Molecule B3 displayed a 50% inhibitory concentration (IC50) in test [1] of 0.8 nM.
